Source: patent US11433099B2, “Immunotherapy with B*08 restricted peptides and combination of peptides against cancers and related methods” (Immatics Biotechnologies GmbH, priority 2018, dated 2022)

biological target: HLA-B*08:01 (Homo sapiens, UniProt P01889); assay: MHC binding assay (UV-ligand exchange, beta2m ELISA); settings: MHC class I binding score; binding to HLA-B*08:01 ranged by peptide exchange yield (UV-ligand exchange, β2m ELISA)
Description: Candidate peptides for T cell based therapies according to the present invention were further tested for their MHC binding capacity (affinity). The individual peptide-MHC complexes were produced by UV-ligand exchange, where a UV-sensitive peptide is cleaved upon UV-irradiation and exchanged with the peptide of interest as analyzed. Only peptide candidates that can effectively bind and stabilize the peptide-receptive MHC molecules prevent dissociation of the MHC complexes. To determine the yield of the exchange reaction, an ELISA was performed based on the detection of the light chain (β2m) of stabilized MHC complexes. The assay was performed as generally described in Rodenko et al. (Rodenko et al., 2006).
96 well MAXISorp plates (NUNC) were coated over night with 2 ug/ml streptavidin in PBS at room temperature, washed 4× and blocked for 1 h at 37° C. in 2% BSA containing blocking buffer. Refolded HLA-A*02:01/MLA-001 monomers served as standards, covering the range of 15-500 ng/ml. Peptide-MHC monomers of the UV-exchange reaction were diluted 100-fold in blocking buffer. Samples were incubated for 1 h at 37° C., washed four times, incubated with 2 ug/ml HRP conjugated anti-β2m for 1 h at 37° C., washed again and detected with TMB solution that is stopped with […]. Absorption was measured at 450 nm. Candidate peptides that show a high exchange yield (preferably higher than 50%, most preferred higher than 75%) are generally preferred for a generation and production of antibodies or fragments thereof, and/or T cell receptors or fragments thereof, as they show sufficient avidity to the MHC molecules and prevent dissociation of the MHC complexes.

Peptide exchange | Substance
+++ (50% = +++) | 2 (QIMPKAGL; listed as Homo sapiens) [compound 2]
++ (20% = ++) | 4 (QVMPKTGL; listed as Homo sapiens) [compound 4]
++ (20% = ++) | 6 (NRQKRFVL; listed as Homo sapiens) [compound 6]
++ (20% = ++) | 7 (AARLRPAL; listed as Homo sapiens) [compound 7]
+++ (50% = +++) | 12 (DFYLRSSAF; listed as Homo sapiens) [compound 12]
+++ (50% = +++) | 14 (ELILKRCL; listed as Homo sapiens) [compound 14]
++ (20% = ++) | 15 (LLKKIEHA; listed as Homo sapiens) [compound 15]
++ (20% = ++) | 16 (NRKPRTPF; listed as Homo sapiens) [compound 16]
+++ (50% = +++) | 17 (LLILKTVL; listed as Homo sapiens) [compound 17]
++ (20% = ++) | 23 (DIKKTNESL; listed as Homo sapiens) [compound 23]
++++ (75% = ++++) | 24 (DLVLKRCL; listed as Homo sapiens) [compound 24]
++ (20% = ++) | 26 (DARCKLAEL; listed as Homo sapiens) [compound 26]
++ (20% = ++) | 28 (DPKSRLKSL; listed as Homo sapiens) [compound 28]
++ (20% = ++) | 30 (DLQKKAQAL; listed as Homo sapiens) [compound 30]
++ (20% = ++) | 32 (NPYLKLVL; listed as Homo sapiens) [compound 32]
++ (20% = ++) | 39 (DAKSKIEQI; listed as Homo sapiens) [compound 39]
+++ (50% = +++) | 43 (DLKKLVDSL; listed as Homo sapiens) [compound 43]

Peptide exchange | Substance
+++ (50% = +++) | 44 (HLTNRVLSL; listed as Homo sapiens) [compound 44]
+++ (50% = +++) | 46 (DLRNKIIAA; listed as Homo sapiens) [compound 46]
+++ (50% = +++) | 50 (TLRLLVAAL; listed as Homo sapiens) [compound 50]
+++ (50% = +++) | 51 (ERRVKVSSL; listed as Homo sapiens) [compound 51]
+++ (50% = +++) | 52 (ELILKHSL; listed as Homo sapiens) [compound 52]
++ (20% = ++) | 53 (DLRKLKRQL; listed as Homo sapiens) [compound 53]
++ (20% = ++) | 54 (DLSRRDVSL; listed as Homo sapiens) [compound 54]
++ (20% = ++) | 55 (VLLSRRTAL; listed as Homo sapiens) [compound 55]
++ (20% = ++) | 56 (ILCGSRKMPL; listed as Homo sapiens) [compound 56]
++ (20% = ++) | 59 (FDFRGKTKVF; listed as Homo sapiens) [compound 59]
++ (20% = ++) | 61 (SIKKELVVL; listed as Homo sapiens) [compound 61]
++ (20% = ++) | 64 (FILGREAGAL; listed as Homo sapiens) [compound 64]
++ (20% = ++) | 65 (NLLMRNVL; listed as Homo sapiens) [compound 65]
++ (20% = ++) | 67 (DMNTKRAIHTL; listed as Homo sapiens) [compound 67]
++ (20% = ++) | 69 (ELARQRLL; listed as Homo sapiens) [compound 69]
++ (20% = ++) | 70 (RPKGTPPL; listed as Homo sapiens) [compound 70]
+++ (50% = +++) | 72 (LPLAHHIQL; listed as Homo sapiens) [compound 72]
